Measured values as given in US20200347133A1 (INHIBRX, published 2020).
Positions count from the first letter of the chain named.

B1: hz1C7v1 sdAb (hz1C7v1 VHH domain fused to human IgG1 xELL Fc region) (Fc fusion)
chain: EVQLVESGGGEVQPGGSLRLSCAASGRTFSGYIMGWFRQAPGKERELVARISGNNLSTEYAESVKGRFTISRDNAKNTLYLQMSSLRAEDTAVYYCAAEYDYSSGDFVYWGQGTLVTVDKTHTCPPCPAPGGPSVFLFPPKPKDTLMISRTPEVTCVVVDVSHEDPEVKFNWYVDGVEVHNAKTKPREEQYNSTYRVVSVLTVLHQDWLNGKEYKCKVSNKALPAPIEKTISKAKGQPREPQVYTLPPSRDELTKNQVSLTCLVKGFYPSDIAVEWESNGQPENNYKTTPPVLDSDGSFFLYSKLTVDKSRWQQGNVFSCSVMHEALHNHYTQKSLSLSPGK
notes: VHH-Fc; no linker stated; also called hz1C7v1-IgG1
B2: hz1C7v11 sdAb (hz1C7v11 VHH domain fused to human IgG1 xELL Fc region) (Fc fusion)
chain: B1 chain with S57A
notes: VHH-Fc; no linker stated; also called hz1C7v11-IgG1
B3: A07 sdAb (A07 VHH domain fused to human IgG1 xELL Fc region) (Fc fusion)
chain: QVQLVQSGGGLVQAGGSLTLSCAASRSSGIDVMGWYRQAPGKERELVAEISGVGDTNYAASLADRFTVSRDNAKNTVYLQMKNLKPEDTAVYYCNAHSFLDLVGAWGQGTQVTVDKTHTCPPCPAPGGPSVFLFPPKPKDTLMISRTPEVTCVVVDVSHEDPEVKFNWYVDGVEVHNAKTKPREEQYNSTYRVVSVLTVLHQDWLNGKEYKCKVSNKALPAPIEKTISKAKGQPREPQVYTLPPSRDELTKNQVSLTCLVKGFYPSDIAVEWESNGQPENNYKTTPPVLDSDGSFFLYSKLTVDKSRWQQGNVFSCSVMHEALHNHYTQKSLSLSPGK
notes: VHH-Fc; no linker stated
B4: hzA07v4 sdAb (hzA07v4 VHH domain fused to human IgG1 xELL Fc region) (Fc fusion)
chain: B3 chain with Q1E, Q6E, L11E, A14P, T19R, K82S, N83S, K85R, P86A, Q111L
notes: VHH-Fc; no linker stated; also called hzA07v4-IgG1
B5: hzF02v18 sdAb (hzF02v18 VHH domain fused to human IgG1 xELL Fc region) (Fc fusion)
chain: EVQLVESGGGEVQPGGSLRLSCAASGSISSYNVMGWYRQAPGKQRELVAQINAYGDTNYANAVVGRFTISRDNAKNTVYLQMSSLRAEDTAVYYCNGQRMLENYTYRDQSWGQGTLVTVDKTHTCPPCPAPGGPSVFLFPPKPKDTLMISRTPEVTCVVVDVSHEDPEVKFNWYVDGVEVHNAKTKPREEQYNSTYRVVSVLTVLHQDWLNGKEYKCKVSNKALPAPIEKTISKAKGQPREPQVYTLPPSRDELTKNQVSLTCLVKGFYPSDIAVEWESNGQPENNYKTTPPVLDSDGSFFLYSKLTVDKSRWQQGNVFSCSVMHEALHNHYTQKSLSLSPGK
notes: VHH-Fc; no linker stated; also called hzF02v18-IgG1

How the values were obtained:
[1] = target: T1, CD33M, full length human CD33 protein expressed on transfected cells (human, UniProt P20138 18-303); test: flow cytometry on cells transfected with CD33M; apparent Kd, one-site fit
T1 construct: also called full length CD33
T1 sequence (P20138 18-303): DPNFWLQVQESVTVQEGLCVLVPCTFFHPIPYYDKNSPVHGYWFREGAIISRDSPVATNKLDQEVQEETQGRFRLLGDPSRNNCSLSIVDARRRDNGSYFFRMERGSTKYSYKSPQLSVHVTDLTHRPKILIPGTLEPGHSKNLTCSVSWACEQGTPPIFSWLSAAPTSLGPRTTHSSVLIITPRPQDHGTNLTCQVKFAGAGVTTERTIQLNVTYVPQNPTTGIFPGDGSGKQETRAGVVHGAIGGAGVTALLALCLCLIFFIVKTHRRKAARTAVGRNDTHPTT
Description: (§1) Binding of sdAbs to human CD33 was assessed by flow cytometry. […] MOLM-13 cells were transiently transfected with a plasmid encoding a sequence comprising “CD33M” (SEQ ID NO: 112) or a plasmid encoding a sequence comprising a truncated version, “CD33m” (SEQ ID NO: 113). The sequence encoded by the CD33M plasmid includes the leader sequence, full extracellular domain, transmembrane domain, and cytoplasmic domain. The sequence encoded by the CD33m plasmid includes the leader sequence, the membrane proximal IgC2 domain, and the transmembrane domain. Untransfected HEK 293 cells were used as CD33-negative cells. Each cell type was plated at 30,000 cells/well in FACS buffer (PBS 1% BSA, 0.1% NaN₃ pH 7.4) on a 96-well round-bottom plate. The sdAbs were diluted in FACS buffer in a 3-fold, 11 point serial dilution. The sdAb dilutions were added to the plated cells, and assay plates were incubated for 30 minutes at 4° C. After washing twice in 150 μL of FACS buffer, cells in each well were resuspended in 100 μL of 1:2000 Alexa Fluor 647-conjugated Anti-Human IgG secondary diluted in FACS buffer and incubated at 4° C. for 30 minutes. The cells were washed twice more, then bound antibody was detected by flow cytometry.
(§2) Flow cytometric analysis was performed on an Intellicyte iQue Plus and fluorescence was plotted as median fluorescence intensity. The apparent affinity (Kd, nM) was determined using one site binding non-linear regression in PRISM graph software.

[2] = target: T1, CD33M, full length human CD33 protein …; test: flow cytometry on Molm-13 cells transfected with CD33 (CD33M per Table 3), anti-human IgG Alexa Fluor 647 secondary, median fluorescence
Description: (§3) Binding of sdAbs to human CD33 was assessed by flow cytometry. […] MOLM-13 cells were transiently transfected with a plasmid encoding a sequence comprising “CD33M” (SEQ ID NO: 112) or a plasmid encoding a sequence comprising a truncated version, “CD33m” (SEQ ID NO: 113). The sequence encoded by the CD33M plasmid includes the leader sequence, full extracellular domain, transmembrane domain, and cytoplasmic domain. The sequence encoded by the CD33m plasmid includes the leader sequence, the membrane proximal IgC2 domain, and the transmembrane domain. Untransfected HEK 293 cells were used as CD33-negative cells. Each cell type was plated at 30,000 cells/well in FACS buffer (PBS 1% BSA, 0.1% NaN₃ pH 7.4) on a 96-well round-bottom plate. The sdAbs were diluted in FACS buffer in a 3-fold, 11 point serial dilution. The sdAb dilutions were added to the plated cells, and assay plates were incubated for 30 minutes at 4° C. […] The cells were washed twice more, then bound antibody was detected by flow cytometry.
as §2

[3] = target: T1, CD33M, full length human CD33 protein …; test: flow cytometry on Molm-13 cells transfected with CD33 (CD33M per Table 3), fluorescent anti-human IgG secondary, axis Median BL-1H
[4] = target: T2, CD33m, truncated human CD33 protein expressed on transfected cells (human, UniProt P20138 140-259); test: flow cytometry on cells transfected with truncated CD33m; apparent Kd, one-site fit; CD33m isoform, not CD33M
T2 construct: leader and transmembrane domain are not in it; also called truncated CD33
T2 sequence (P20138 140-259 limits assumed): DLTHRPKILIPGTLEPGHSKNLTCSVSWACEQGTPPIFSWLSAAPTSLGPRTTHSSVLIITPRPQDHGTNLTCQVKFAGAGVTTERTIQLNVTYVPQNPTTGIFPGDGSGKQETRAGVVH
Description: as §3, §2

[5] = target: T2, CD33m, truncated human CD33 protein …; test: flow cytometry on cells labelled CD33m-HEK-293, anti-human IgG Alexa Fluor 647 secondary, median fluorescence
Description: as §3, §2

[6] = target: T2, CD33m, truncated human CD33 protein …; test: flow cytometry on cells transfected with truncated CD33m; apparent Kd, one-site fit
Description: as §1, §2

[7] = target: T1, CD33M, full length human CD33 protein …; test: flow cytometry on cells labelled CD33M-HEK-293, anti-human IgG Alexa Fluor 647 secondary, median fluorescence
Description: Binding of sdAbs to human CD33 was assessed by flow cytometry. […] […] The sequence encoded by the CD33M plasmid includes the leader sequence, full extracellular domain, transmembrane domain, and cytoplasmic domain. The sequence encoded by the CD33m plasmid includes the leader sequence, the membrane proximal IgC2 domain, and the transmembrane domain. Untransfected HEK 293 cells were used as CD33-negative cells. Each cell type was plated at 30,000 cells/well in FACS buffer (PBS 1% BSA, 0.1% NaN₃ pH 7.4) on a 96-well round-bottom plate. The sdAbs were diluted in FACS buffer in a 3-fold, 11 point serial dilution. The sdAb dilutions were added to the plated cells, and assay plates were incubated for 30 minutes at 4° C. After washing twice in 150 μL of FACS buffer, cells in each well were resuspended in 100 μL of 1:2000 Alexa Fluor 647-conjugated Anti-Human IgG secondary diluted in FACS buffer and incubated at 4° C. for 30 minutes. The cells were washed twice more, then bound antibody was detected by flow cytometry.
as §2

Binder | Kd [1] | EC50 (read off the curve) [2] | EC50 (read off the curve) [3] | Kd [4] | EC50 (read off the curve) [5] | Kd [6] | EC50 (read off the curve) [7]
B1 | 6.25 nM | ~6 nM | – | – | – | – | –
B2 | 5.45 nM | – | ~5 nM | – | – | – | –
B3 | 53.5 nM | – | – | 19.9 nM | – | – | –
B4 | 56.6 nM | – | – | – | ~9 nM | 11.8 nM | –
B5 | 14.8 nM | – | – | – | ~8 nM | 9.13 nM | 10 to 100 nM
